US20150203575A1 (Genentech, published 2015)

Tests used:
Test in all cases: cDNA expression library screen with PILRα-AP supernatant on COS7 transfectants; positive clones further analysed by FACS
ETBR expressed on cells = molecular target: T1, ETBR expressed on cells (human, UniProt P24530 27-442)
T1 construct: Clone of the Origene human cDNA library; also called Endothelin receptor type B
T1 sequence: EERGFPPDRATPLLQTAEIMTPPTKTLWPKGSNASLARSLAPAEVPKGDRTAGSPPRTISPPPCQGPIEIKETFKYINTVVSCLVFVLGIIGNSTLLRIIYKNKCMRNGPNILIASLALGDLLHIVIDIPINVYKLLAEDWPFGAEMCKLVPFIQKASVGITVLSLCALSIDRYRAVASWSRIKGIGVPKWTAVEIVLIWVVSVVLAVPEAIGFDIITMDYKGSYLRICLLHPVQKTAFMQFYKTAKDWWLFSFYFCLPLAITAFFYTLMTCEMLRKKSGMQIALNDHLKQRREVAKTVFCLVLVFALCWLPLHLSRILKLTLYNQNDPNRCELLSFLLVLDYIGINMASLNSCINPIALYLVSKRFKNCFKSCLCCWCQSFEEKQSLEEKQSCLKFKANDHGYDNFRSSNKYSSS
Method: (§1) COS7 cells were plated in a 24-well format and transfected with 10 ul of Origene library DNA (Origene, human DNA library containing 20 k genes) per well with Fugene 6 Reagent. Two days later, cells were incubated with human or mouse PILRα-Ap supernatants for 45 min at room temperature (RT). Then cells were fixed with 4% PFA for 15 min at RT. After removing fixation buffer, cells were blocked with 100 mM Glycine in HBS (20 mM Hepes, PH7.2, 150 mM NaCl) for 15 min at RT. Cells were then rinsed and incubated in HBS for 90 min at 65° C. HBS was removed and Western Blue Substrate (Promega) was added and color was developed for 30 min to 1 hr.

[1] = molecular target: T2, CLEC4G expressed on cells (human, UniProt Q6UXB4 1-293)
T2 construct: Clone of the Origene human cDNA library; also called C type lectin superfamily 4 member G
T2 sequence: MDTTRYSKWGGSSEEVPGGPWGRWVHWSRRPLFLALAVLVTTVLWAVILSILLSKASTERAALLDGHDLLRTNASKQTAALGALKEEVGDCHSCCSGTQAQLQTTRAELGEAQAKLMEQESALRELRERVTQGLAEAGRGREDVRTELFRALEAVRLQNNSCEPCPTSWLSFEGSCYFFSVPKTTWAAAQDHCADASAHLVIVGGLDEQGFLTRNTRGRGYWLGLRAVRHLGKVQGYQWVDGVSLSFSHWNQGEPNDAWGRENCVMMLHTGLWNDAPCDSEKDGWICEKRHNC
Method: as §1

MAG expressed on cells = molecular target: T3, MAG expressed on cells (human, UniProt P20916 20-626)
T3 construct: Clone of the Origene human cDNA library; also called Myelin associated glycoprotein; SIGLEC4A
T3 sequence: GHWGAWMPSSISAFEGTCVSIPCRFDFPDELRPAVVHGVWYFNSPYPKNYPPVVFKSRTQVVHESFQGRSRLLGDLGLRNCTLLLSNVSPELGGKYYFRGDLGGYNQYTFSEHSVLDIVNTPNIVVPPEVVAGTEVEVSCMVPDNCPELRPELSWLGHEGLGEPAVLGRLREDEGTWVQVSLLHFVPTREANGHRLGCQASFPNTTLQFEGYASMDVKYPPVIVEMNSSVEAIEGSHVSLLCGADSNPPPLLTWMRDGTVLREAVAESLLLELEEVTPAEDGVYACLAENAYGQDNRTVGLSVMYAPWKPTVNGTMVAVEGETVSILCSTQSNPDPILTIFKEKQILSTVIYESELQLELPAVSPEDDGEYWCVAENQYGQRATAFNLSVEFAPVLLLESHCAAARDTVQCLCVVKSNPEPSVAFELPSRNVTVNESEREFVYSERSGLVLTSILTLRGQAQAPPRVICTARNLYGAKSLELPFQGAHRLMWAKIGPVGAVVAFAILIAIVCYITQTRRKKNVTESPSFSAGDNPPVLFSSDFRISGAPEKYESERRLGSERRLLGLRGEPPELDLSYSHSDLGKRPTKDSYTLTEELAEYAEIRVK
Method: as §1

[2] = molecular target: T4, IL-2Ra expressed on cells (human, UniProt P01589 22-272)
T4 construct: Clone of the Origene human cDNA library; also called Interleukin 2 receptor alpha
T4 sequence: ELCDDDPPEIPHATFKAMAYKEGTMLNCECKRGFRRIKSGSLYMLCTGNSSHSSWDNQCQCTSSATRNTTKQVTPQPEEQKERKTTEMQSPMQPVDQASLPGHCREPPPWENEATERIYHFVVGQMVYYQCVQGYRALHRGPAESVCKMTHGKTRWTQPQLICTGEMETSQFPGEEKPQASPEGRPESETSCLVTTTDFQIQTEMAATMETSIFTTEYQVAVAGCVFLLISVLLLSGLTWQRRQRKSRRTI
Method: as §1

WDR31 expressed on cells = molecular target: T5, WDR31 expressed on cells (human, UniProt Q8NA23 1-367)
T5 construct: Clone of the Origene human cDNA library; also called WD repeat domain 31
Method: as §1

[3] = molecular target: T6, IL15-RA expressed on cells (human, UniProt Q13261 31-267)
T6 construct: Clone of the Origene human cDNA library; also called Interleukin 15 receptor alpha
Method: as §1

Measured: binding result

T5 sequence (Q8NA23 other isoform, or with tags, fused parts or gaps): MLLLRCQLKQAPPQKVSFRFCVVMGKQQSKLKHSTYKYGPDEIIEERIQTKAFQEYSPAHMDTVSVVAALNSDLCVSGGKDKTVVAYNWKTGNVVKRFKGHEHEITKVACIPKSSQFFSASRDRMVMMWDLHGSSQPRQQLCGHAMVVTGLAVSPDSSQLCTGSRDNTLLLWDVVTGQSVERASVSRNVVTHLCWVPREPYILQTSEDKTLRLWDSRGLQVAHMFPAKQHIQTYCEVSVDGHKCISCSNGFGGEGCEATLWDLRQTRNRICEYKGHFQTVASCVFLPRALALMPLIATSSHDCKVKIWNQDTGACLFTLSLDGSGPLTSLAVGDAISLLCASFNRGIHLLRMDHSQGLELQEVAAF
T6 sequence (Q13261 31-267 limits assumed): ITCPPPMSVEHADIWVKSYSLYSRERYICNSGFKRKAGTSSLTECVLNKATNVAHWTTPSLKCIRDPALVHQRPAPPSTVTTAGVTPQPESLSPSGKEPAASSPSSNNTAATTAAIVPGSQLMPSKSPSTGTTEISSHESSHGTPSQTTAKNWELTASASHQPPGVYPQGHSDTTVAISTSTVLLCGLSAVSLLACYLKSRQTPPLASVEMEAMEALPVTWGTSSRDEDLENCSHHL

B1: hPILRα-AP (other)
chain: QPSGSTGSGPSYLYGVTQPKHLSASMGGSVEIPFSFYYPWELATAPDVRISWRRGHFHRQSFYSTRPPSIHKDYVNRLFLNWTEGQKSGFLRISNLQKQDQSVYFCRVELDTRSSGRQQWQSIEGTKLSITQAVTTTTQRPSSMTTTWRLSSTTTTTGLRVTQGKRRSDSWHISLET
notes: Used as culture supernatant; also called human PILRα-AP; Alkaline phosphatase (AP)-tagged PILRα construct; not shown: C-terminal alkaline phosphatase (AP) tag
binds: all assays above
